Ends that are not written are not given here.

These results are taken from US20260008872A1 (NANO TAG BIOTECHNOLOGIES, published 2026).

To fix the notation:
B1: Variant 3 of humanized NbALFA (VHH)
VHH: EVQLLESGGGLVQPGGSLRLSCAASGVTISALNAMAMGWFRQAPGKGLEFVAAVSERGNAMYRESVQGRFTISRDNSKNTLYLQMNSLRAEDTAVYYCAALEDRVDSFHDYWGQGTLVTVSS
notes: CDR-grafted variant, produced in E. coli and purified by IMAC; The tag is not described
B2: Variant 6 of humanized NbALFA (VHH)
VHH: EVQLQASGGGFVQPGGSLRLSCAASGVTISALNAMAMGWFRQAPGKEREFVSAVSERGNAMYRESVQGRFTISRDNSKNTVYLQMNSLRAEDTATYYCAALEDRVDSFHDYWGQGTQVTVSS
notes: as for B1
B3: Variant 4 of humanized NbALFA (VHH)
VHH: EVQLLESGGGLVQPGGSLRLSCAASGVTISALNAMAMGWFRQAPGKGLEFVAAVSERGNAYYRDSVKGRFTISRDNSKNTLYLQMNSLRAEDTAVYYCAALEDRVDSFHDYWGQGTLVTVSS
notes: as for B1
B4: Variant 5 of humanized NbALFA (VHH)
VHH: EVQLQASGGGFVQPGGSLRLSCAASGVTISALNAMAMGWFRQAPGKEREFVSAISERGNAYYRDSVKGRFTISRDNSKNTVYLQMNSLRAEDTATYYCAALEDRVDSFHDYWGQGTQVTVSS
notes: as for B1
B5: Variant 11 of humanized NbALFA (VHH)
VHH: EVQLVESGGGLVQPGGSLRLSCAASGVTISALNAMAMGWYRQAPGKRREMVAAVSERGNAMYRESVKGRFTISRDNAKRMVYLQMNSLRAEDTAVYYCHVLEDRVDSFHDYWGQGTQVTVSS
B6: Variant 12 of humanized NbALFA (VHH)
VHH: EVQLVESGGGLVQPGGSLRLSCAASGVTISALNAMAMGWYRQAPGKRREMVAAVSERGNTMYRESVKGRFTISRDNAKRMVYLQMNSLRAEDTAVYYCHVLEDRVDSFHDYWGQGTQVTVSS
B7: Variant 8 of humanized NbALFA (VHH)
VHH: EVQLVESGGGLVQPGGSLRLSCAASGVTISALNAMAMGWFRQAPGKRREMVAAVSERGNAMYRESVQGRFTISRDNAKRMVYLQMNSLRAEDTAVYYCHVLEDRVDSFHDYWGQGTQVTVSS
notes: Further engineered humanized variant; Any tag on the tested construct is not described
B8: Variant 9 of humanized NbALFA (VHH)
VHH: EVQLVESGGGLVQPGGSLRLSCAASGVTISALNAMAMGWYRQAPGKRREMVAAVSERGNAMYRESVQGRFTISRDNAKRMVYLQMNSLRAEDTAVYYCHVLEDRVDSFHDYWGQGTQVTVSS
notes: as for B7
B9: Variant 14 of humanized NbALFA (VHH)
VHH: EVQLVESGGGLVQPGGSLRLSCAASGVTISALNAMAMGWYRQAPGKRREMVAAVSERGNAMYRESVKGRFTISRDNSKNTLYLQMNSLRAEDTAVYYCHVLEDRVDSFHDYWGQGTQVTVSS
B10: Variant 15 of humanized NbALFA (VHH)
VHH: EVQLVESGGGLVQPGGSLRLSCAASGVTISALNAMAMGWYRQAPGKRREMVAAVSERGNTYYRDSVKGRFTISRDNSKNTLYLQMNSLRAEDTAVYYCHVLEDRVDSFHDYWGQGTQVTVSS
B11: Variant 10 of humanized NbALFA (VHH)
VHH: EVQLVESGGGLVQPGGSLRLSCAASGVTISALNAMAMGWYRQAPGKRREMVAAVSERGNTMYRESVQGRFTISRDNAKRMVYLQMNSLRAEDTAVYYCHVLEDRVDSFHDYWGQGTQVTVSS
B12: Variant 13 of humanized NbALFA (VHH)
VHH: EVQLVESGGGLVQPGGSLRLSCAASGVTISALNAMAMGWYRQAPGKRREMVAAVSERGNTYYRDSVKGRFTISRDNAKRMVYLQMNSLRAEDTAVYYCHVLEDRVDSFHDYWGQGTQVTVSS
B13: wtNbALFA (original alpaca-derived NbALFA single-domain antibody) (VHH)
VHH: EVQLQESGGGLVQPGGSLRLSCTASGVTISALNAMAMGWYRQAPGERRVMVAAVSERGNAMYRESVQGRFTVTRDFTNKMVSLQMDNLKPEDTAVYYCHVLEDRVDSFHDYWGQGTQVTVSS
notes: VHH; Any purification tag on the construct used in the BLI and SpA assays is not described; also called wild type NbALFA
B14: Variant 7 of humanized NbALFA (VHH)
VHH: EVQLVESGGGLVQPGGSLRLSCAASGVTISALNAMAMGWFRQAPGKGRELVAAVSERGNAMYRESVQGRFTISRDNAKRMVYLQMNSLRAEDTAVYYCHVLEDRVDSFHDYWGQGTQVTVSS
notes: as for B1

The first assay concerns the target T1, epitope tag peptide SRLEEELRRRLTE (SEQ ID NO: 2), biotinylated (also: biotinylated (site and linker not given here)).
T1 construct: Rationally designed peptide; also called ALFA-tag
T1 peptide: SRLEEELRRRLTE
In words: biolayer interferometry (Octet); biotinylated peptide of SEQ ID NO: 2 loaded on SAX2.0 biosensors; VHH in solution, 1:1 serial dilution (Method 1). From the text:
FIG. 1: Affinity of humanized NbALFA variants generated by CDR grafting. A, affinity measurements of the original alpaca-derived NbALFA (wtNbALFA) for the peptide of SEQ ID NO: 2. B, affinity measurements of variant 3 for the peptide of SEQ ID NO: 2. C, affinity measurements of variant 4 for the peptide of SEQ ID NO: 2. D, affinity measurements of variant 5 for the peptide of SEQ ID NO: 2. E, affinity measurements of variant 6 for the peptide of SEQ ID NO: 2. F, affinity measurements of variant 7 for the peptide of SEQ ID NO: 2. Affinity was determined using biolayer interferometry as described in Method 1 of the Examples.
(§1) To determine the affinity of humanized NbALFA variants to the epitope tag of SEQ ID NO: 2, an Octet RED96 or an Octet HTX from ForteBio was utilized. The measurement principle is based on biolayer interferometry (BLI). SAX2.0 biosensors were soaked for 10 min in kinetic buffer (KB), supplied by the manufacturer of the instrument. At first, a 60 or 120 sec baseline in KB was measured, followed by a loading step of 240 sec with 83 ng/ml of biotinylated peptide of SEQ ID NO: 2. After loading, free streptavidin entities on the biosensor were quenched during a 120 sec incubation step in a 100 μg/ml biocytin solution. Subsequently, a 60 to 600 sec baseline in KB was measured followed by association of the VHH. The VHH was applied with a maximal concentration of 10 nM and was 1:1 serial diluted in KB. As a reference, only KB was measured. Association was performed for 900 sec, followed by a dissociation time of 1500 sec in KB. The signal of the reference well was subtracted from the signal of all other biosensors and the signals of these processed data were aligned to the average of the second baseline. For inter-step correction, the data were aligned to the dissociation step and Savitzky-Golay filtering was applied to all curves. Association and dissociations were globally fitted using a 1:1 Langmuir binding model.
For orientation: In BLI a coated tip is dipped into the sample, and binding shifts an interference pattern.
With B1, the binding result is given as “no binding”.
Turning to B2, the binding result is reported as “no binding”.
B3: the binding result is recorded as “no binding”.
As to B4, the binding result is listed as “no binding”.

In a further assay the target is T1, epitope tag peptide SRLEEELRRRLTE (SEQ …). As to the kind of experiment: BLI (Octet), biotinylated peptide on SAX2.0 biosensors, 1:1 global fit. As to the method:
as §1
For orientation: Kd means the concentration at which binding is half-saturated. A word on the koff: it is a measure of how fast the partners let go of each other. What is called kon is the second-order rate constant of association. A higher kon goes with faster complex formation. In turn, B5 registered a Kd of 0.0595 nM, a koff of 3.7e-05 s⁻¹ and a kon of 622000 M⁻¹ s⁻¹.
For B6, in that order: 0.248 nM, 0.000151 s⁻¹ and 609000 M⁻¹ s⁻¹.
Consider B7, for which the Kd came out at 0.263 nM, the koff is 0.000263 s⁻¹ and the kon came to 1e+06 M⁻¹ s⁻¹.
Consider B8, for which the Kd worked out at 0.182 nM, the dissociation rate constant (koff) was 3.69e-05 s⁻¹ and the kon was 203000 M⁻¹ s⁻¹.
For B9, in that order: 0.218 nM, 0.00013 s⁻¹ and 596000 M⁻¹ s⁻¹.
On to B10, for which the off-rate constant (koff) is 0.000302 s⁻¹ and the kon was 1.59e+06 M⁻¹ s⁻¹.
As for B11, the Kd is 0.306 nM, the koff came to 0.000147 s⁻¹ and the on-rate constant (kon) came out at 480000 M⁻¹ s⁻¹.
For B12, in that order: 0.217 nM, 0.000167 s⁻¹ and 767000 M⁻¹ s⁻¹.
The molecule B13 came in with a Kd of 0.16 nM, an off-rate constant (koff) of 6.37e-05 s⁻¹ and a kon of 399000 M⁻¹ s⁻¹.

Another assay has the same target. Described as above. This is another data set of the same source. As to the method: as §1
Molecule B14 gave a Kd of 1.86 nM, a koff of 0.000276 s⁻¹ and a kon of 149000 M⁻¹ s⁻¹.
With B13, the dissociation constant Kd stood at 0.16 nM, the koff turned out to be 6.37e-05 s⁻¹ and the association rate constant (kon) is 399000 M⁻¹ s⁻¹.
